Assay [1] addresses human neutrophil elastase (HNE) (human) (UniProt P08246). Put plainly: cell-based or functional assay.
The target in assay [2] is human plasma kallikrein (PK) (human) (UniProt P03952). Put plainly: cell-based or functional assay.
Chain of human plasma kallikrein (PK) (human) (P03952 20-638 limits assumed): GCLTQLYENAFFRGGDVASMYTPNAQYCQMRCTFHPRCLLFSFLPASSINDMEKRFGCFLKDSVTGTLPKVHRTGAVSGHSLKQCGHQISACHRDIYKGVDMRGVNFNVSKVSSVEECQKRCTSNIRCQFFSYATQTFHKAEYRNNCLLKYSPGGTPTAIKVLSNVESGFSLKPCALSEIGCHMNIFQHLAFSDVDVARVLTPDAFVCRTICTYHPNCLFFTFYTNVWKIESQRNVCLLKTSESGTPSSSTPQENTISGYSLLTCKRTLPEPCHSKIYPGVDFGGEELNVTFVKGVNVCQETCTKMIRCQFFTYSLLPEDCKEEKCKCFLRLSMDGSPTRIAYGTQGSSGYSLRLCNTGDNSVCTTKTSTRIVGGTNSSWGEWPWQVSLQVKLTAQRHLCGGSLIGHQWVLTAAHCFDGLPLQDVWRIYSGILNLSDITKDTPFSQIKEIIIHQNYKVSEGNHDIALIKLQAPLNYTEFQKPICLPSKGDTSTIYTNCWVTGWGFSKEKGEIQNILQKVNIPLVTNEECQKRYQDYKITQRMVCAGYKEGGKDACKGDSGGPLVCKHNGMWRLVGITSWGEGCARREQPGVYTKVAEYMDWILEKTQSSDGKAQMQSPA

Chain of human neutrophil elastase (HNE) (human) (P08246 30-247 limits assumed): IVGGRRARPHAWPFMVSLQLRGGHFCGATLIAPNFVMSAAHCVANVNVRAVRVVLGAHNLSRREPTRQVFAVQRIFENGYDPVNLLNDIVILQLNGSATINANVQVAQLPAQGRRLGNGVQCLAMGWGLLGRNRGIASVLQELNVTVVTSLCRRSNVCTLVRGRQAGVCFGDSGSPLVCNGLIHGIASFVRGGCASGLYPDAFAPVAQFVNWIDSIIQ

As usually defined, the % Inhibition is the change of the read-out against control, counted positive when it falls. In the case of “rACTWT (recombinant wild type alpha-1-antichymotrypsin) (from UniProt P01011 24-423)”, in assay [1], the % Inhibition came out at 26%, the INHIBITION % stood at 15% and the Percentage inhibition came to 16%. In assay [2], this substance showed a % Inhibition of 46%, an INHIBITION % of 0% and a Percentage inhibition of 46%.

For the origin of these results see patent US20140341881A1.
